B1: UGT76G1var58: UGT76G1 variant, mutations S357C_S375M_N409R_Q425E (protein, UniProt Q6VAB4 1-458, looked up, variant S357C S375M N409R Q425E)
UDP-glycosyltransferase 76G1: MENKTETTVRRRRRIILFPVPFQGHINPILQLANVLYSKGFSITIFHTNFNKPKTSNYPHFTFRFILDNDPQDERISNLPTHGPLAGMRIPIINEHGADELRRELELLMLASEEDEEVSCLITDALWYFAQSVADSLNLRRLVLMTSSLFNFHAHVSLPQFDELGYLDPDDKTRLEEQASGFPMLKVKDIKSAYSNWQILKEILGKMIKQTKASSGVIWNSFKELEESELETVIREIPAPSFLIPLPKHLTASSSSLLDHDRTVFQWLDQQPPSSVLYVSFGSTSEVDEKDFLEIARGLVDSKQSFLWVVRPGFVKGSTWVEPLPDGFLGERGRIVKWVPQQEVLAHGAIGAFWTHCGWNSTLESVCEGVPMIFMDFGLDQPLNARYMSDVLKVGVYLENGWERGEIARAIRRVMVDEEGEYIRENARVLKQKADVSLMKGGSSYESLESLVSYISSL
B2: UGT76G1var3: UGT76G1 variant, mutations I295T_S357C_V366I (protein, UniProt Q6VAB4 1-458, looked up, variant I295T S357C V366I)
UDP-glycosyltransferase 76G1: MENKTETTVRRRRRIILFPVPFQGHINPILQLANVLYSKGFSITIFHTNFNKPKTSNYPHFTFRFILDNDPQDERISNLPTHGPLAGMRIPIINEHGADELRRELELLMLASEEDEEVSCLITDALWYFAQSVADSLNLRRLVLMTSSLFNFHAHVSLPQFDELGYLDPDDKTRLEEQASGFPMLKVKDIKSAYSNWQILKEILGKMIKQTKASSGVIWNSFKELEESELETVIREIPAPSFLIPLPKHLTASSSSLLDHDRTVFQWLDQQPPSSVLYVSFGSTSEVDEKDFLETARGLVDSKQSFLWVVRPGFVKGSTWVEPLPDGFLGERGRIVKWVPQQEVLAHGAIGAFWTHCGWNSTLESICEGVPMIFSDFGLDQPLNARYMSDVLKVGVYLENGWERGEIANAIRRVMVDEEGEYIRQNARVLKQKADVSLMKGGSSYESLESLVSYISSL
B3: UGT76G1var64: UGT76G1 variant, mutations F22L_A239I_R334H_I407V (protein, UniProt Q6VAB4 1-458, looked up, variant F22L A239I R334H I407V)
UDP-glycosyltransferase 76G1: MENKTETTVRRRRRIILFPVPLQGHINPILQLANVLYSKGFSITIFHTNFNKPKTSNYPHFTFRFILDNDPQDERISNLPTHGPLAGMRIPIINEHGADELRRELELLMLASEEDEEVSCLITDALWYFAQSVADSLNLRRLVLMTSSLFNFHAHVSLPQFDELGYLDPDDKTRLEEQASGFPMLKVKDIKSAYSNWQILKEILGKMIKQTKASSGVIWNSFKELEESELETVIREIPIPSFLIPLPKHLTASSSSLLDHDRTVFQWLDQQPPSSVLYVSFGSTSEVDEKDFLEIARGLVDSKQSFLWVVRPGFVKGSTWVEPLPDGFLGERGHIVKWVPQQEVLAHGAIGAFWTHSGWNSTLESVCEGVPMIFSDFGLDQPLNARYMSDVLKVGVYLENGWERGEVANAIRRVMVDEEGEYIRQNARVLKQKADVSLMKGGSSYESLESLVSYISSL
B4: UGT76G1var60: UGT76G1 variant, mutations E231A_L243A_V279I_S357N (protein, UniProt Q6VAB4 1-458, looked up, variant E231A L243A V279I S357N)
UDP-glycosyltransferase 76G1: MENKTETTVRRRRRIILFPVPFQGHINPILQLANVLYSKGFSITIFHTNFNKPKTSNYPHFTFRFILDNDPQDERISNLPTHGPLAGMRIPIINEHGADELRRELELLMLASEEDEEVSCLITDALWYFAQSVADSLNLRRLVLMTSSLFNFHAHVSLPQFDELGYLDPDDKTRLEEQASGFPMLKVKDIKSAYSNWQILKEILGKMIKQTKASSGVIWNSFKELEESELATVIREIPAPSFAIPLPKHLTASSSSLLDHDRTVFQWLDQQPPSSVLYISFGSTSEVDEKDFLEIARGLVDSKQSFLWVVRPGFVKGSTWVEPLPDGFLGERGRIVKWVPQQEVLAHGAIGAFWTHNGWNSTLESVCEGVPMIFSDFGLDQPLNARYMSDVLKVGVYLENGWERGEIANAIRRVMVDEEGEYIRQNARVLKQKADVSLMKGGSSYESLESLVSYISSL
B5: UGT76G1var59: UGT76G1 variant, mutations I335V_K393G_V394I_Y397Q (protein, UniProt Q6VAB4 1-458, looked up, variant I335V K393G V394I Y397Q)
UDP-glycosyltransferase 76G1: MENKTETTVRRRRRIILFPVPFQGHINPILQLANVLYSKGFSITIFHTNFNKPKTSNYPHFTFRFILDNDPQDERISNLPTHGPLAGMRIPIINEHGADELRRELELLMLASEEDEEVSCLITDALWYFAQSVADSLNLRRLVLMTSSLFNFHAHVSLPQFDELGYLDPDDKTRLEEQASGFPMLKVKDIKSAYSNWQILKEILGKMIKQTKASSGVIWNSFKELEESELETVIREIPAPSFLIPLPKHLTASSSSLLDHDRTVFQWLDQQPPSSVLYVSFGSTSEVDEKDFLEIARGLVDSKQSFLWVVRPGFVKGSTWVEPLPDGFLGERGRVVKWVPQQEVLAHGAIGAFWTHSGWNSTLESVCEGVPMIFSDFGLDQPLNARYMSDVLGIGVQLENGWERGEIANAIRRVMVDEEGEYIRQNARVLKQKADVSLMKGGSSYESLESLVSYISSL
B6: UGT76G1var65: UGT76G1 variant, mutations A33G_A239V_P382M_Q425E (protein, UniProt Q6VAB4 1-458, looked up, variant A33G A239V P382M Q425E)
UDP-glycosyltransferase 76G1: MENKTETTVRRRRRIILFPVPFQGHINPILQLGNVLYSKGFSITIFHTNFNKPKTSNYPHFTFRFILDNDPQDERISNLPTHGPLAGMRIPIINEHGADELRRELELLMLASEEDEEVSCLITDALWYFAQSVADSLNLRRLVLMTSSLFNFHAHVSLPQFDELGYLDPDDKTRLEEQASGFPMLKVKDIKSAYSNWQILKEILGKMIKQTKASSGVIWNSFKELEESELETVIREIPVPSFLIPLPKHLTASSSSLLDHDRTVFQWLDQQPPSSVLYVSFGSTSEVDEKDFLEIARGLVDSKQSFLWVVRPGFVKGSTWVEPLPDGFLGERGRIVKWVPQQEVLAHGAIGAFWTHSGWNSTLESVCEGVPMIFSDFGLDQMLNARYMSDVLKVGVYLENGWERGEIANAIRRVMVDEEGEYIRENARVLKQKADVSLMKGGSSYESLESLVSYISSL
B7: UGT76G1var62: UGT76G1 variant, mutations L243P_P272A_V394I_V396F (protein, UniProt Q6VAB4 1-458, looked up, variant L243P P272A V394I V396F)
UDP-glycosyltransferase 76G1: MENKTETTVRRRRRIILFPVPFQGHINPILQLANVLYSKGFSITIFHTNFNKPKTSNYPHFTFRFILDNDPQDERISNLPTHGPLAGMRIPIINEHGADELRRELELLMLASEEDEEVSCLITDALWYFAQSVADSLNLRRLVLMTSSLFNFHAHVSLPQFDELGYLDPDDKTRLEEQASGFPMLKVKDIKSAYSNWQILKEILGKMIKQTKASSGVIWNSFKELEESELETVIREIPAPSFPIPLPKHLTASSSSLLDHDRTVFQWLDQQAPSSVLYVSFGSTSEVDEKDFLEIARGLVDSKQSFLWVVRPGFVKGSTWVEPLPDGFLGERGRIVKWVPQQEVLAHGAIGAFWTHSGWNSTLESVCEGVPMIFSDFGLDQPLNARYMSDVLKIGFYLENGWERGEIANAIRRVMVDEEGEYIRQNARVLKQKADVSLMKGGSSYESLESLVSYISSL
B8: UGT76G1var61: UGT76G1 variant, mutations I43V_F265I_Q266S_L379A (protein, UniProt Q6VAB4 1-458, looked up, variant I43V F265I Q266S L379A)
UDP-glycosyltransferase 76G1: MENKTETTVRRRRRIILFPVPFQGHINPILQLANVLYSKGFSVTIFHTNFNKPKTSNYPHFTFRFILDNDPQDERISNLPTHGPLAGMRIPIINEHGADELRRELELLMLASEEDEEVSCLITDALWYFAQSVADSLNLRRLVLMTSSLFNFHAHVSLPQFDELGYLDPDDKTRLEEQASGFPMLKVKDIKSAYSNWQILKEILGKMIKQTKASSGVIWNSFKELEESELETVIREIPAPSFLIPLPKHLTASSSSLLDHDRTVISWLDQQPPSSVLYVSFGSTSEVDEKDFLEIARGLVDSKQSFLWVVRPGFVKGSTWVEPLPDGFLGERGRIVKWVPQQEVLAHGAIGAFWTHSGWNSTLESVCEGVPMIFSDFGADQPLNARYMSDVLKVGVYLENGWERGEIANAIRRVMVDEEGEYIRQNARVLKQKADVSLMKGGSSYESLESLVSYISSL
B9: UGT76G1var63: UGT76G1 variant, mutations F314S_R334H_Q342K_L379G (protein, UniProt Q6VAB4 1-458, looked up, variant F314S R334H Q342K L379G)
UDP-glycosyltransferase 76G1: MENKTETTVRRRRRIILFPVPFQGHINPILQLANVLYSKGFSITIFHTNFNKPKTSNYPHFTFRFILDNDPQDERISNLPTHGPLAGMRIPIINEHGADELRRELELLMLASEEDEEVSCLITDALWYFAQSVADSLNLRRLVLMTSSLFNFHAHVSLPQFDELGYLDPDDKTRLEEQASGFPMLKVKDIKSAYSNWQILKEILGKMIKQTKASSGVIWNSFKELEESELETVIREIPAPSFLIPLPKHLTASSSSLLDHDRTVFQWLDQQPPSSVLYVSFGSTSEVDEKDFLEIARGLVDSKQSFLWVVRPGSVKGSTWVEPLPDGFLGERGHIVKWVPQKEVLAHGAIGAFWTHSGWNSTLESVCEGVPMIFSDFGGDQPLNARYMSDVLKVGVYLENGWERGEIANAIRRVMVDEEGEYIRQNARVLKQKADVSLMKGGSSYESLESLVSYISSL
B10: UGT76G1var66: UGT76G1 variant, mutations F265L_V310I_V366I_A385T (protein, UniProt Q6VAB4 1-458, looked up, variant F265L V310I V366I A385T)
UDP-glycosyltransferase 76G1: MENKTETTVRRRRRIILFPVPFQGHINPILQLANVLYSKGFSITIFHTNFNKPKTSNYPHFTFRFILDNDPQDERISNLPTHGPLAGMRIPIINEHGADELRRELELLMLASEEDEEVSCLITDALWYFAQSVADSLNLRRLVLMTSSLFNFHAHVSLPQFDELGYLDPDDKTRLEEQASGFPMLKVKDIKSAYSNWQILKEILGKMIKQTKASSGVIWNSFKELEESELETVIREIPAPSFLIPLPKHLTASSSSLLDHDRTVLQWLDQQPPSSVLYVSFGSTSEVDEKDFLEIARGLVDSKQSFLWVIRPGFVKGSTWVEPLPDGFLGERGRIVKWVPQQEVLAHGAIGAFWTHSGWNSTLESICEGVPMIFSDFGLDQPLNTRYMSDVLKVGVYLENGWERGEIANAIRRVMVDEEGEYIRQNARVLKQKADVSLMKGGSSYESLESLVSYISSL

assay: Directed evolution of UGT76G1, Rebaudioside D to Rebaudioside M, round 1 (Example 26); assay type: biochemical; conditions: 100 μL fresh lysate, 0.5 mM Rebaudioside D, 30° C., pH 7.2
Protocol: Lysis was performed by addition of Bugbuster® Master mix (Novagen®) to the thawed cells and the lysate was recovered by centrifugation. Activity tests were performed with 100 μL of fresh lysate that was added to a solution of Rebaudioside D (final concentration 0.5 mM), MgCl2 (final concentration 3 mM) and UDP-Glucose (final concentration 2.5 mM) in 50 mM phosphate buffer pH 7.2.
The reaction was allowed to run at 30° C. and samples were taken after 2, 4, 7 and 24 h. to determine conversion and initial rate by HPLC (CAD detection) using the analytical method that was described above for the transformation of Rebaudioside D to Rebaudioside M. The results are depicted in the following table.

Point of comparison: B4, “conversion Reb D to Reb M after 24 h” value 0.5%. Against it:
- B1 — higher, 7.5%
- B2 — higher, 9.6%
- B3 — lower, 0.3%
- B5 — higher, 33.0%
- B6 — higher, 1.2%
- B7 — lower, 0.1%
- B8 — higher, 6.4%
- B9 — higher, 3.4%
- B10 — higher, 0.8%

Point of comparison: B9, initial rate 1.2E+06 Reb M area/min. Against it:
- B1 — higher, 2.2E+06 Reb M area/min
- B2 — higher, 1.6E+06 Reb M area/min
- B3 — lower, 3.1E+04 Reb M area/min
- B4 — lower, 9.5E+04 Reb M area/min
- B5 — higher, 2.7E+07 Reb M area/min
- B6 — lower, 3.3E+05 Reb M area/min
- B7 — lower, 3.4E+04 Reb M area/min
- B8 — higher, 2.0E+06 Reb M area/min
- B10 — lower, 3.7E+05 Reb M area/min

Reference: patent publication US11653679B2, “High-purity steviol glycosides” (PureCircle Sdn Bhd, priority 2014, dated 2023)
